Tests used:
[1] = biological target: T1, YxiN S108C/N444C (UniProt P42305 1-479, C61A;C267A;S108C;N444C); experiment: fluorescence anisotropy
T1 sequence: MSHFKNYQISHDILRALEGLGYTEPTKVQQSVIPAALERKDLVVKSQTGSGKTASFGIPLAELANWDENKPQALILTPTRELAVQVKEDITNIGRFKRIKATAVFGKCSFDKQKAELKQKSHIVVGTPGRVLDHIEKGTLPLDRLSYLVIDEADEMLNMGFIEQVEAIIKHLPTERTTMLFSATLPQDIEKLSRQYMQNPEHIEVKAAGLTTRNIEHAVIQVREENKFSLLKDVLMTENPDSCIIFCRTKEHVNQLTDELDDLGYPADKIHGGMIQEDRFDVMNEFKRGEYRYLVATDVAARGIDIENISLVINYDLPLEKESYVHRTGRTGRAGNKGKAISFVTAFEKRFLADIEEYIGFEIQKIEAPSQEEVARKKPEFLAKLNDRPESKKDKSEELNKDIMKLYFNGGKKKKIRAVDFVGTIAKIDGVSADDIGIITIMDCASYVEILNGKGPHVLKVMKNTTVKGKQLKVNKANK

[2] = biological target: T2, YxiN A115C/S229C biotinylated (UniProt P42305 1-479, C61A;C267A;A115C;S229C); experiment: smFRET
T2 sequence: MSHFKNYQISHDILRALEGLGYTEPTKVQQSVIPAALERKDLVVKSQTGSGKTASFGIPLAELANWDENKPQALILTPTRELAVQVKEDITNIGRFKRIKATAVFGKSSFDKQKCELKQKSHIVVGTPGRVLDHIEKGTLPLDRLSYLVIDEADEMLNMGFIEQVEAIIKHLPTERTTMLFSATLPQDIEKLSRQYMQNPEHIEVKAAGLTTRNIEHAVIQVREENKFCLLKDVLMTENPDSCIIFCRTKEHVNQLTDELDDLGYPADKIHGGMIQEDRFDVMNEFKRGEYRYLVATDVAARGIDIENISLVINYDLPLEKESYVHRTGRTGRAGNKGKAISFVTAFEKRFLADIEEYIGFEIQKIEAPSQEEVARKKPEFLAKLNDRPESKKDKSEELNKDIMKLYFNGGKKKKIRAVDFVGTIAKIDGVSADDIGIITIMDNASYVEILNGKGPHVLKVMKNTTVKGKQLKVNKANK

[3] = biological target: T3, YxiN S108C/N464C (UniProt P42305 1-479, C61A;C267A;S108C;N464C); experiment: smFRET
T3 sequence: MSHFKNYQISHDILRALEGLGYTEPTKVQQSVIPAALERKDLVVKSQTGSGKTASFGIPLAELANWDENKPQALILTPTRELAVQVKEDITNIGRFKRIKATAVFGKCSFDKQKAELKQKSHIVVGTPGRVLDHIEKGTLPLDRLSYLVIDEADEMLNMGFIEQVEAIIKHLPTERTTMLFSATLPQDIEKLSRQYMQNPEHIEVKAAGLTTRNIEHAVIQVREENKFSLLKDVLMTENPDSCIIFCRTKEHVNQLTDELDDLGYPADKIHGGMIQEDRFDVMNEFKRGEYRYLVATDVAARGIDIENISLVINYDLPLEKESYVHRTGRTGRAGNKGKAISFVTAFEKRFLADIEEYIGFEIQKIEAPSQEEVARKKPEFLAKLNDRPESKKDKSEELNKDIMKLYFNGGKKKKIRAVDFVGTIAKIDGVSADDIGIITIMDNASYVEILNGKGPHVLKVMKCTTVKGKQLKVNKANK

[4] = biological target: T4, YxiN S108C/D429C (UniProt P42305 1-479, C61A;C267A;S108C;D429C); experiment: smFRET
T4 sequence: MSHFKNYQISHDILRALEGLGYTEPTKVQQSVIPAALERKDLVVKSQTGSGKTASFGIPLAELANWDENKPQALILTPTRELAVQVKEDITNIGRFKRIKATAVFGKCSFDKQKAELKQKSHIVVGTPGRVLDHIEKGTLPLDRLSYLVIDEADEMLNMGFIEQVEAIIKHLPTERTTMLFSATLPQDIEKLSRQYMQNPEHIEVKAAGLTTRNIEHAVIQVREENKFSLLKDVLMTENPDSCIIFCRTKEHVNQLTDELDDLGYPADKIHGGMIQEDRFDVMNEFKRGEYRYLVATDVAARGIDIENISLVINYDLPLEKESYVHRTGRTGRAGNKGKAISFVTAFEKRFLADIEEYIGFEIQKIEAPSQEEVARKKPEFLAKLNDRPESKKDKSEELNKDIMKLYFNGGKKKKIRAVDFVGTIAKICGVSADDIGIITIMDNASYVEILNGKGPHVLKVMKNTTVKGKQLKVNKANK

[5] = biological target: T5, YxiN S108C/S229C (UniProt P42305 1-479, C61A;C267A;S108C;S229C); experiment: smFRET
T5 sequence: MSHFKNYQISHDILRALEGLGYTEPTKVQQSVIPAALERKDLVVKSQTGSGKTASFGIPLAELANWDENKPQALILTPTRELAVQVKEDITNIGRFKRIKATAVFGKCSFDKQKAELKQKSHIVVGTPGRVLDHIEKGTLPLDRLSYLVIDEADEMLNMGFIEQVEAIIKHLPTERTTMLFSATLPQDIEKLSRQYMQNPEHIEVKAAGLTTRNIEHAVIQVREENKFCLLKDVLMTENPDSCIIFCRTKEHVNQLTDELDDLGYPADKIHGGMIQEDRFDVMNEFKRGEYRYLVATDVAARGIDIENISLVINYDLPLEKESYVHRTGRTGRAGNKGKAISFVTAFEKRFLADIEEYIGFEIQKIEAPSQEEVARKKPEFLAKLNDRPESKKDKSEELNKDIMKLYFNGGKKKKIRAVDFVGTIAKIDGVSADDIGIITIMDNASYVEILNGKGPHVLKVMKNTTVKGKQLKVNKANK

[6] = biological target: T1, YxiN S108C/N444C; experiment: smFRET

Binder: CGAGGUCCCAAGGGUUGGGCUGUUCGCCCAUU (structured_RNA) [32mer (FAM)]
- Kd [1]: 170 nM

Binder: CGAGGUCCCAAGGGUUGGGCUGUUCGCCCAUU (structured_RNA) [32mer]
- binding result [2]: binds
- binding result [3]: binds
- binding result [4]: binds
- binding result [5]: binds

Binder: UGGGCUGUUCGCCCAU (structured_RNA) [32merHairpin]
- binding result [5]: binds
- binding result [6]: binds

— paper PMC5389509
